Experimental data taken from US20260201034A1 (published 2026).

Target: T1, HER2 Y772dupYVMA peptide on HLA-A*02:01 (human)
T1 peptide: VMAYVMAGV
Assay: multimer staining

binding result: recognises
B1: HER2 (Y772dupYVMA)/HLA-A*02:01-specific TCR (TCR, V domains shown)
Valpha: AQTVTQSQPEMSVQEAETVTLSCTYDTSESDYYLFWYKQPPSRQMILVIRQEAYKQQNATENRFSVNFQKAAKSFSLKISDSQLGDAAMYFCAYWSVPGGSYIPTFGRGTSLIVHP
Vbeta: EAQVTQNPRYLITVTGKKLTVTCSQNMNHEYMSWYRQDPGLGLRQIYYSMNVEVTDKGDVPEGYKVSRKEKRNFPLILESPSPNQTSLYFCASSLRPGTSIPGELFFGEGSRLTVL
